# pEC50: −log10 of the molar value.
# What was measured:
# Pharmacokinetic analysis = test: Pharmacokinetic analysis
# Excerpt: Table printed on a drawing sheet, Fig. 15C
# Title: Pharmacokinetic analysis
# The patent's description of the figure: FIG. 15. Pharmacokinetics of EC0746 and potential metabolites aminopterin (AMT) and AMT hydrazide (EC0470) in Rats. Panel A. Plasma concentrations (nmol/L) of EC0746, AMT and AMT hydrazide following single subcutaneous EC0746 (500 nmol/kg) administration. Panel B. Plasma concentrations (nmol/L) of AMT following single subcutaneous AMT (500 nmol/kg) administration. c. Pharmacokinetic analysis of the results of (a.) and (b.).
# First reader's note: Each column is an analyte detected in rat plasma after dosing the test compound named in row 1; values are means of n=3.
# RAW264.7 cells = test: XTT cell viability / proliferation of RAW264.7 cells; format: cell-based, murine
# Procedure: (§1) For XTT cell viability and TNF-α inhibition assays, RAW264.7 cells in 96-well plates were treated with vehicle (culture medium) or 10-fold serial dilutions of EC0746 without or with 100-fold excess free folate. After 2 h incubation, the drug-containing media were replaced and the cells were allowed to incubate further for 70 h. Four hours prior to the end of incubation, LPS was added to the treated cells at a final concentration of 100 ng/mL. 100 μL of the culture supernatants were collected for TNF-α analysis using a commercial ELISA kit. See FIG. 2, Panel B. The cell viability was assessed by adding XTT (2,3-bis(2-methoxy-4-nitro-5-sulfo-phenyl)-2H-tetrazolium-5-carboxanilide) to the remaining medium for an additional 4 h following the manufacturer's instructions (Roche Applied Science, Indianapolis, Ind.) See FIG. 2, Panel A. Both results were expressed as % absorbance (minus background) relative to untreated control in triplicates.
# (§2) RAW264.7 cells in 96-well plates were treated with vehicle (culture medium) or 10-fold serial dilutions of EC0932 without or with 100-fold excess free folate. […] The cell viability was assessed by adding XTT (2,3-bis(2-methoxy-4-nitro-5-sulfo-phenyl)-2H-tetrazolium-5-carboxanilide) to the remaining medium for an additional 4 h following the manufacturer's instructions (Roche Applied Science, Indianapolis, Ind.). […]
# [1] = test system: LPS-stimulated TNF-α production in RAW264.7 cells; test: LPS-stimulated TNF-α production in RAW264.7 cells (ELISA); format: cell-based, murine; conditions: 72 h incubations
# Procedure: as §1, §2
# [2] = Plasma pharmacokinetics after a single subcutaneous dose of EC0746 or aminopterin
# Procedure: Female Lewis rats with rounded tip jugular vein catheters (Harlan) were fed regular rodent diet and used in this study. The animals were given a single subcutaneous dose of EC0746 at 500 nmol/kg. Whole blood samples (300 μl) were collected from the animals at the following time points: 1 min, 10 min, 30 min, 1 h, 2 h, 3 h, 4 h, and 8 h after injection. The blood samples were placed into anti-coagulant tubes containing 1.7 mg/mL of K3-EDTA and 0.35 mg/mL of N-Maleoyl-beta-alanine (0.35 mg/mL). Plasma samples were obtained by centrifugation for 3 min at ˜2,000 g and stored at −80° C. The amount of EC0746 and its released base drugs (EC0470 & aminopterin) were determined by HPLC using the EC0746 injection solution as the standard (see FIG. 4). […] A similar method was used to determine the plasma pharmacokinetics of aminopterin (see FIG. 5).
# Thus, the plasma concentrations of EC0746 and two primary metabolites, AMT and AMT hydrazide, were determined by LC/MS/MS after a single subcutaneous EC0746 administration. […] For comparison, the pharmacokinetics of subcutaneously dosed AMT (500 nmol/kg) was also examined (FIG. 15b).
# Serum protein binding = format: in vitro ADME
# [3] = Maximum tolerated dose in folate-deficient rats; format: in vivo, rat
# Procedure: Healthy rats were administered a subcutaneous injection of the indicated dose of aminopterin or EC0746 biweekly for 2 weeks; control animals, no treatment, 100 nmole/kg aminopterin, 50 nmole/kg aminopterin, 500 nmole/kg EC0746, or 2000 nmole/kg EC0746. The animals were weighed daily. See FIG. 6, Panels A and B. A dose of […] of aminopterin in folate deficient rats is above the MTD; therefore, the projected MTD of EC0746 would be <0.5 μmol/kg based solely on ˜20% free drug release shown in the previous Example. However, the MTD of EC0746 is actually 2.0 μmol/kg, which is equivalent to 0.4 μmol/kg, or ˜8× higher than the MTD for free aminopterin. On a molar basis for total aminopterin, the MTD is 40× higher.
# Since the toxicity of antifolates can be easily masked by rodent diets enriched with folate, healthy rats on a folate-deficient diet (Harlan) were used to determine the maximum-tolerated-dose levels (MTD) of EC0746, AMT and MTX. The animals were given biweekly injections of EC0746, AMT, and MTX for two weeks. The MTD dose was defined as the dose that had caused at least 13-14% weight loss combined with clinical signs of stress and at least one animal in the >MTD dose group needed to be euthanized. Standard hematologic and blood chemistry parameters were examined as needed along with histopathology. The MTDs of EC0746, MTX and AMT were determined to be 2000, 1000, and 50 nmol/kg, respectively. At above the MTD dose level, the main toxicities of EC0746 were similar to those of AMT and MTX, including manifested gastrointestinal distress (diarrhea), swollen muzzle, immunosuppression (bone marrow, thymus), low white-blood-cell count, low platelet count, and infections. […] Overall, EC0746 was approximately 40-fold less toxic than AMT and 2-fold less toxic than MTX on an equimolar basis in these folate-deficient animals; however, its toxicity profile at above MTD levels was not dissimilar from that of AMT and MTX.
# [4] = molecular target: folate receptors (FR-α) of KB cells (Homo sapiens, UniProt P15328); conditions: FR-α positive, 3H-folic acid
# [5] = molecular target: folate receptors (FR-β) of CHO cells (Homo sapiens, UniProt P14207); conditions: 3H-folic acid
# DHFR = molecular target: T1, DHFR (Mus musculus, UniProt P00375); test: DHFR activity in lysate of treated RAW264.7 cells; format: cell-based, murine; conditions: 10 μM, 2-h pulse, 22-h chase
# T1 construct: endogenous in cells; host or cells: RAW264.7
# T1 sequence (P00375 1-187): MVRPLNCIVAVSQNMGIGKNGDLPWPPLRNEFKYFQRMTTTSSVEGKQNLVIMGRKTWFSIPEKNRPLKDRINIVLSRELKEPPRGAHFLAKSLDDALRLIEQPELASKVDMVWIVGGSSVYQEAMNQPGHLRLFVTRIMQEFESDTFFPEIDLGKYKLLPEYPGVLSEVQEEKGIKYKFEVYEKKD
# Procedure: RAW264.7 cells were treated with vehicle (medium), EC0746 (100 nM) without or with 100-fold excess free folate, aminopterin (AMT, 100 nM), methotrexate (MTX, 100 nM), or excess free folate alone (10 μM). […] At the end of incubation, the cells were lysed and the DHFR activity in cell lysates was measured using a commercial DHFR assay kit (Sigma-Aldrich, Saint Louis, Mo.).
# [6] = after single s.c. dose of EC0746 500 nmole/kg
# [7] = rat, in vivo, subcutaneous, folate-deficient rats, biweekly injections for two weeks
# Chain of folate receptors (FR-α) of KB cells (P15328 25-234): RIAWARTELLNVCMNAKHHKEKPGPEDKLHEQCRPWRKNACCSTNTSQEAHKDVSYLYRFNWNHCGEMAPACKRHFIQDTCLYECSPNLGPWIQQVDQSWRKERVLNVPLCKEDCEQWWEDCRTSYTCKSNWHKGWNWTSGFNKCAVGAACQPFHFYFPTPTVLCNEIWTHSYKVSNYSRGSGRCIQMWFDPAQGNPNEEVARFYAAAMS
# Chain of folate receptors (FR-β) of CHO cells (P14207 17-230, species assumed): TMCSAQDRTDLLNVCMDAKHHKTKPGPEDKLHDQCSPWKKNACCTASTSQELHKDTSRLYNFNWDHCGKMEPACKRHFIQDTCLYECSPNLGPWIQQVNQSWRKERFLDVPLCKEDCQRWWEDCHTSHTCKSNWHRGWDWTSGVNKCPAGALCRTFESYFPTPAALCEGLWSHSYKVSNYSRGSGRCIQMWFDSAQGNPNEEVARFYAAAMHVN
compound,measurement,setting,value
Nc1nc(N)c2nc(CNc3ccc(C(=O)N[C@@H](CCC(=O)O)C(=O)O)cc3)cnc2n1 [AMT | AMT],AUC0-t |,Pharmacokinetic analysis,61.3 nmol/min/mL
same,CL or CL_F |,Pharmacokinetic analysis,1.7 mL/min
same,Cmax |,Pharmacokinetic analysis,601 nM
same,T1/2(elimination) | min,Pharmacokinetic analysis,140 min
same,Tmax | min,Pharmacokinetic analysis,30 min
same,Vz or Vz_F | mL,Pharmacokinetic analysis,328 mL
"NNC(=O)CC[C@H](NC(=O)c1ccc(NCc2cnc3nc(N)nc(N)c3n2)cc1)C(=O)O [EC0470, aminopterin gamma-hydrazide, reference compound]","cell proliferation in the XTT assay, potency of potential EC0746 metabolites",RAW264.7 cells; 72 h incubations,equally potent
same,"LPS-stimulated TNF-α production, potency of potential EC0746 metabolites",[1],equally potent
same,Tmax of released base drug,[2]; released from EC0746 after single s.c. dose 500 nmol/kg,~60 min
same,delay of plasma peak from the EC0746 Cmax,[2]; released from EC0746 in EC0746-dosed rats,30 min
N=c1[nH]c(N)nc2ncc(CNc3ccc(C(=O)N[C@@H](CCC(=O)NNC(=O)OCCSSC[C@H](NC(=O)[C@H](CCC(=O)NC[C@H](O)[C@@H](O)[C@H](O)[C@H](O)CO)NC(=O)[C@H](CCC(=O)O)NC(=O)[C@H](CCC(=O)NC[C@H](O)[C@@H](O)[C@H](O)[C@H](O)CO)NC(=O)[C@H](CCC(=O)O)NC(=O)[C@H](CCC(=O)NC[C@H](O)[C@@H](O)[C@H](O)[C@H](O)CO)NC(=O)CC[C@H](NC(=O)c4ccc(NCc5cnc6nc(N)[nH]c(=O)c6n5)cc4)C(=O)O)C(=O)O)C(=O)O)cc3)nc12 [EC0746],pEC50,RAW264.7 cells; 2 hour treatment followed by 72 hours in treatment-free medium,9.48
same,Area Under Curve for free drug,[2]; [6],7.3 nmol·min/mL
same,Cmax for free drug (aminopterin+aminopterin hydrazide),[2]; [6],34 nM
same,Cmax for free drug as share of the total,[2]; [6],9.6%
same,time at which Cmax for free drug (aminopterin+aminopterin hydrazide) is reached,[2]; [6],60 min
same,half-life,"[2]; female, Lewis, rat, in vivo, sc, 500 nmol/kg",~35 min
same,Cmax,"[2]; female, Lewis, rat, in vivo, sc, 500 nmole/kg",321 nM
same,bioavailability after subcutaneous administration,"[2]; rats, s.c.",bioavailable
same,Area Under Curve for EC0746,[2]; single s.c. dose of EC0746 500 nmole/kg,32.5 nmol·min/mL
same,fraction unbound,Serum protein binding,~0.54
same,fold less toxic than AMT on an equimolar basis,[3]; folate-deficient animals,approximately 40 fold
same,fold less toxic than MTX on an equimolar basis,[3]; folate-deficient animals,~2 fold
same,MTD (free drug equivalent) fold higher than the MTD for free aminopterin,"[3]; rat, in vivo",~8 ×
same,MTD fold higher than aminopterin on a molar basis for total aminopterin,"[3]; rat, in vivo",40 ×
same,MTD at 2 weeks,"[3]; rat, in vivo, sc, s.c. biweekly for 2 weeks",2 µmol/kg
same,MTD at 2 weeks,[3]; [7],2 µmol/kg
same,gastrointestinal-associated toxicities at MTD dose,"[3]; rats, at MTD",less gastrointestinal-associated toxicities than AMT and MTX
same,relative folate receptor affinity (folic acid = 1),[4],0.50
same,relative folate receptor affinity (folic acid = 1),[5],0.270
"Nc1nc(N)c2nc(CNc3ccc(C(=O)N[C@@H](CCC(=O)O)C(=O)O)cc3)cnc2n1 [aminopterin, reference compound]",elimination half-life of metabolite released from EC0746,"[2]; female, Lewis, rat, in vivo, sc",~117 min
same,delay of plasma peak from the EC0746 Cmax,"[2]; rat, in vivo",30 min
same,MTD,"[3]; folate-deficient rats, biweekly injections for two weeks",50 nmol/kg
Nc1nc2ncc(CNc3ccc(C(=O)N[C@@H](CCC(=O)O)C(=O)O)cc3)nc2c(=O)[nH]1 [folic acid],effect of folic acid alone on DHFR activity,DHFR,did not have any impact
"CN(Cc1cnc2nc(N)nc(N)c2n1)c1ccc(C(=O)N[C@@H](CCC(=O)O)C(=O)O)cc1 [methotrexate, reference compound]",MTD at 2 weeks,[3]; [7],1 µmol/kg
same,relative folate receptor affinity (folic acid = 1),[4],0.018
same,relative folate receptor affinity (folic acid = 1),[5],0.005
